# Reference: the nanobody polyreactivity screen of Harvey et al. (2022)
# Assay: yeast display, Sf9 membrane polyspecificity reagent, FACS + sequencing; frameworks hold sequencing errors
# Method in brief: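 After 36–48 hours of galactose induction, yeast (Saccharomyces cerevisiae BJ5465) displaying a synthetic nanobody library were stained at 4 °C for 1 hour with 10% biotinylated, detergent-solubilized Sf9 membrane reagent. Streptavidin microbeads enriched the stained cells before FACS sorting into low and high (top ~1%) gates on anti-HA and streptavidin fluorescence. Each clone's polyreactivity label reflects its gate of origin.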
row,Sequence,polyreactivity (PSR sort gate)
1,QVQLVESGGGLVQAGGSLRLSCAASGSTRIYAMGWYRQAPGKERELVAAISWTGGRTYYADSVKGRFTISRDNAKNTVYLQMNSLKPEDTAVYYCAAKGSGRDYWGQGTQVTVSS,high polyreactivity
2,QVQLVESGGGLVQAGGSLRLSCAASGSTRRYAMGWYRQAPGKERELVAAISSRGGSTYYADSVKGRFTISRDNAKNTVYLQMNSLKPEDTAVYYCAARTTRGPTFGYWGQGTQVTVSS,high polyreactivity
3,QVQLVESGGGLVQAGGSLRLSCAASGSTSALYAMGWYRQAPGKERELVATITRSGTTKYADSVKGRFTISRDNAKNTVYLQMNSLKPEDTAVYYCNTDTYFPLYDYWGQGTQVTVSS,low polyreactivity
4,QVQLVESGGGLVQAGGSLRLSCAASGSTSARYAMGWYRQAPGKERELVATITRSGTTKYADSVKGRFTISRDNAKNTVYLQMNSLKPEDTAVYYCNTDTYFPLYDYWGQGTQVTVSS,low polyreactivity
5,QVQLVESGGGLVQAGGSLRLSCAASGSTSESNAMGWYRQAPGKERELVAAIRSSGGGTYYADSVKGRFTISRDNAKNTVYLQMNSLKPEDTAVYYCAKDVPEDYEFYYWGQGTQVTVSS,low polyreactivity
6,QVQLVESGGGLVQAGGSLRLSCAASGSTSGKYGMGWYRQAPGKVRELVAGITKGGGGTYYADSVKGRFTISRDNAKNTVYLQMHSLKPEDTAVYYCAKYYGSGYYIYDYWGQGTQVTVSS,low polyreactivity
7,QVQLVESGGGLVQAGGSLRLSCAASGSTSLSYVKGWYRQAPGKERELVATITSSGGSTYYADSVKGRFTISRDNAKNTDYLQMNSLKQEDPAVYYCNARSYIYPFSPTSYYRYYWGQGTQVTGSS,high polyreactivity
8,QVQLVESGGGLVQAGGSLRLSCAASGSTSNLYAMGWYIQAPGKERELVAAITSIDGGTYYADSVKGRFTISRDNAKNTVYLQMNSLKAEDTAVYYCNAEDRFFYWGGYDYWGQGTQVTVSS,low polyreactivity
9,QVQLVESGGGLVQAGGSLRLSCAASGSTSPDNAMGWYRPAQGKERELVAAISSGGYTYADSVKGRFTISRDNAKNTVYLQMNSLKPEDTSVYYCAKDDLYSPAAGGGYWGEGTQVTVSS,low polyreactivity
10,QVQLVESGGGLVQAGGSLRLSCAASGSTSPGYAMGWYRQAPGKERELVAAITFRGTRTYYADSVKGRFTISRDNAKNTVYLQMNSLKPEDTAVFYCNVVGYGPNRGRVDYWGQGTQVTVSS,high polyreactivity
11,QVQLVESGGGLVQAGGSLRLSCAASGSTSPLYAMGWYRQAPGKERELVAAISWSTGSTYYADSVKGRFTISRDNAKNTVYLQMNSLKPEDTAVYYCAADYWFRYGTYEYWGQGTQVTVSS,high polyreactivity
12,QVQLVESGGGLVQAGGSLRLSCAASGSTSPNAMGWYRQAPGKERELVAAIWSGGTYYADSVKGRFTISRDNAKNTVYLQLNSLKPEDTAVYYCAVTGVYRGFRYGYLGQGTQVTVSS,low polyreactivity
13,QVQLVESGGGLVQAGGSLRLSCAASGSTSQRNAMGWYRQAPGKERELVAAISRSGGSTSYADSVKGRFTISRDNAKNTVYLQMNSLKPEDTAVYYCNTDRRIYRVWYNYWGQGTQVTVSS,high polyreactivity
14,QVQLVESGGGLVQAGGSLRLSCAASGSTSRGYAMGWYRPAPGKERELVASITLSGGNTYYADSVKGRFTISRDSAKNTVYFQMYSLKPVDTAVYYCAADDRGSSYGHFTVEYGNWGQGTQVTVSS,low polyreactivity
15,QVQLVESGGGLVQAGGSLRLSCAASGSTSRGYAMGWYRQAPGEERELVASITLSGGNTYYADSVKGRFTISRDNAKNTVYLQMNSLKPEDTAVYYCAADDRGSSYGHFTVEYGYWGQGTQVTVSS,low polyreactivity
16,QVQLVESGGGLVQAGGSLRLSCAASGSTSRYAMGWYRQAPGKERELVAAITRSGGTTYYADSVKGRFTISRDNAKNTVYLQMNSLKPEDTAVYYCATSDRQVKYDYWGQGTQVTVSS,low polyreactivity

row,Sequence,polyreactivity (PSR sort gate)
1,QVQLVESGGGLVQAGGSLRLSCAASGSTSSVNAMGWYRQAPGKEREFVATISFGGGRRYYADSVKGRFTISRDNAKNTVYLQMNSLKPEDTAVYYCAAVGSRWFSQTWRDYWGQGTQVTVSS,high polyreactivity
2,QVQLVESGGGLVQAGGSLRLSCAASGSTSTYYAMGWYRQAPGKERELVATISSTGNTKYADSVKGRFTISRDNAKNTVYLQMNSLKPEDTAVYYCNKRRSARFSSWGRVSYDYWGQGTQVTVSS,high polyreactivity
3,QVQLVESGGGLVQAGGSLRLSCAASGSTSVGNAMGWSRQAPGKERELVAAISRIGGTTYYADSVKGRFTISRDNAKNTVYLQMNSLKPEDPAVYYCNVLKRYWSGRVDYWGQGTQVTVSS,high polyreactivity
4,QVQLVESGGGLVQAGGSLRLSCAASGSTSVQYAMGWYRQAPGKERELVAAIDRSGGSTSYADSVKGRFTISRDNAKHTVYLQMNSLKPEDTAVYYCNADVHNRGWPYDYWGQGTQVTVSS,low polyreactivity
5,QVQLVESGGGLVQAGGSLRLSCAASGSTSVTNAMGWYRQAPGKEREFVATINYSGTSTYYADSVKGRFTISRDNAKNTVYLQMNSLKPEDTAVYYCNAHDFGFYRFSLPGYDYWGQGTQVTVSS,low polyreactivity
6,QVQLVESGGGLVQAGGSLRLSCAASGSTSYPYAMGWYRQAPGKERELVATITSGGRTNYADSVKGRFTISRDNAKNTVYLQMNSLKPEDTAVYYCNARFYRWRSYGYDYWGQGTQVTVSS,high polyreactivity
7,QVQLVESGGGLVQAGGSLRLSCAASGSTSYTNAMGWYRPAPGKERELVAGITRSGDSTYYADSVKGRFTISRDNAKNTVYLQMNSLKPEDTAVYYCAADIGDYWWGYYTGYYYWGQGTQVTVSS,high polyreactivity
8,QVQLVESGGGLVQAGGSLRLSCAASGSTSYYYAMGWYRQAPGKERELVAAISYSGGRTYYADSVKGRFTISRDNAKNTVYLQMNSLKPEDTAVYYCAKTFRGQPYLRYRYYYWGQGTQVTVSS,high polyreactivity
9,QVQLVESGGGLVQAGGSLRLSCAASGSTTHYYAMGWYRQAPGKEWELVASITWSVGSTYYADSVKGRFTISRDNAKNTVYLQMNSLKPEVTAVYYCAGRPFPRRYDYWGQGTQVTVSS,low polyreactivity
10,QVQLVESGGGLVQAGGSLRLSCAASGSTVGANAMGWYRQAPGKERELVATISSGGRTYYADSVKGRFTISRDNAKNTVYLQMNSLKPEDTAVYYCNAGADYTYVYISVYVLYDYWGQGTQVTVSS,low polyreactivity
11,QVQLVESGGGLVQAGGSLRLSCAASGSTVKYAMGWYRQAPGKDRELVASIRRSGGSTYYADSVKGRFTISRDNAMNTVYLQMNRLKPEDTAVYYCNARFPYNWRYDYWGQGTQVTVSS,high polyreactivity
12,QVQLVESGGGLVQAGGSLRLSCAASGSTVPQYTMGWYRQAPGKERELVAAITKSGGSTYYADSVKGRFTISRDNAKNTVYLQMNSLKPEDTAVYYCNRRWGWRLYDYWGQGTQVTVSS,high polyreactivity
13,QVQLVESGGGLVQAGGSLRLSCAASGSTVTYNTMGWYIQAPGKERELVAAISSGGSTYYADSVKGRFTISRDNAKNTVYLQMNSLKPEDTAVYYCAAEHYDYPYDYYCGQGTQVTVSS,high polyreactivity
14,QVQLVESGGGLVQAGGSLRLSCAASGSTVYHNAMGRYRQAPGKERELVAAITWSGSRTYYADSVKGRFTISRDNAKNTVYLQMNSLKPEDTAVYYCAARDYWGQGTQVTVSS,high polyreactivity
15,QVQLVESGGGLVQAGGSLRLSCAASGSTVYRYTMGWYRQAPGKERELVAAISRSGGRTYYADSVKGRFTISRDNAKNTVYLQMNSMKPEDTAVDYCNAEIAASAVQAQEGEFWGQGTQVTVSS,high polyreactivity
16,QVQLVESGGGLVQAGGSLRLSCAASGSTVYTNAMGWYRQAPGKERELVAAISSSGDSTYYADSVKGRFTISRDNAKNTVYLQMNSLKPEDTAVYYCAADKYLSYDFWGQGTQVTVSS,low polyreactivity
